# T1: BaCcpC-FL (Bacillus velezensis, UniProt A7Z428)
# T1 construct: gene RBAM_013910; full length, residues 1-293; N-terminal His tag removed by TEV; E. coli BL21(DE3); dimer (~60 kDa) by SEC-MALS
# T1 sequence (A7Z428 1-293): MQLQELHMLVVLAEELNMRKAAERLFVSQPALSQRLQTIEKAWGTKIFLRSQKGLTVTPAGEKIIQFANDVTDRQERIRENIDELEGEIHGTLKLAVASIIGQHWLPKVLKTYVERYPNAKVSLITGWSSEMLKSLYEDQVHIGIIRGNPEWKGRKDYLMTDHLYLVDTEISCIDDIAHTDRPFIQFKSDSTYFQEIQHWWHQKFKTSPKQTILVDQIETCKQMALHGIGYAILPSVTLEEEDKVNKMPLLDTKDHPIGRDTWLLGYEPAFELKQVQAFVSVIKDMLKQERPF
# How the values were obtained:
# BaCcpC-FL = molecular target: T1, BaCcpC-FL; experiment: EMSA with biotin-labelled citB promoter DNA; format: binding; conditions: 40 μM protein, 800 nM citB promoter DNA, 0-70 μM citrate, 30 min, room temperature; inducer
# [1] = molecular target: the molecule itself; experiment: SEC-MALS; BaCcpC-FL not incubated with citrate; Superdex 200 Increase 10/300 GL, 295 K, 20 mM Tris pH 8.0, 150 mM NaCl, 2 mM 2-mercaptoethanol
# [2] = molecular target: the molecule itself; experiment: crystal structure; BaCcpC-IBD with citrate, 2.3 Å, space group C2, SAD phasing; crystals from PEG 6000, MPD, 0.1 M HEPES pH 7.5, 287 K
molecule,measurement,setting,value
O=C(O)CC(O)(CC(=O)O)C(=O)O [citrate],EMSA with biotin-labelled citB promoter DNA,BaCcpC-FL,the presence of citrate slightly suppressed the binding of CcpC to citB-P
"full-length catabolite control protein C from Bacillus amyloliquefaciens (natural protein, UniProt A0A9P1JGF9 1-293, looked up, Catabolite control protein C (CcpC), LysR-type transcriptional regulator, Bacillus amyloliquefaciens, residues 1-293, amplified from genomic DNA; PDB 7DMW holds only residues 88-293; also called BaCcpC-FL; BaCcpC; source: E. coli BL21 (DE3), purified (Ni-NTA, TEV cleavage, HiTrap-Q, Superdex 200); not shown: His6, N-terminal, cleaved) MQLQELHMLVVLAEELNMRKAAERLFVSQPALSQRLQTIEKAWGTKIFLRSQKGLTVTPAGEKIIQFANDVTDRQERIRENIDELEGEIHGTLKLAVASIIGQHWLPKVLKTYVERYPNAKVSLITGWSSEMLKSLYEDQVHIGIIRGNPEWKGRKDYLMTDHLYLVDTEISCIDDIAHTDRPFIQFKSDSTYFQEIQHWWHQKFKTSPKQTILVDQIETCKQMALHGIGYAILPSVTLEEEDKVNKMPLLDAKDHPIGRDTWLLGYEPAFELKQVQAFVSVVKDMLKQERPF",stoichiometry N,[1],2
"C-terminal inducer-binding domain of Bacillus amyloliquefaciens CcpC (domain or fragment, UniProt A0A9P1JGF9 88-293, looked up, selenomethionine-substituted (Se-Met protein used for SAD phasing), Crystallised in complex with citrate; five molecules in the asymmetric unit; Cloned into pPROEX-HTA; also called BaCcpC-IBD; CcpC-IBD; source: E. coli BL21 (DE3), purified (Ni-NTA, TEV cleavage, HiTrap-Q, Superdex 200) with 10 mM sodium citrate throughout; not shown: His6, N-terminal, cleaved) EIHGTLKLAVASIIGQHWLPKVLKTYVERYPNAKVSLITGWSSEMLKSLYEDQVHIGIIRGNPEWKGRKDYLMTDHLYLVDTEISCIDDIAHTDRPFIQFKSDSTYFQEIQHWWHQKFKTSPKQTILVDQIETCKQMALHGIGYAILPSVTLEEEDKVNKMPLLDAKDHPIGRDTWLLGYEPAFELKQVQAFVSVVKDMLKQERPF",binding result,[2],binds

# — paper PMC8514465, “Functional and structural analysis of catabolite control protein C that responds to citrate” (Scientific Reports, 2021)
